Patent publication US8969060B2, “Modified glucose dehydrogenase” (Ikeda Food Research Co., Ltd., priority 2011, dated 2015)
Residue numbers refer to the chain shown, from its start. Names may count otherwise.

What was measured:
[1] = Relative enzymatic activity of GLD (DCIP/1-m-PMS, plate reader, yeast culture supernatant) with proflavin hydrochloride present; assay type: biochemical; settings: site-specific mutants, inhibitor final concentration 1 mM
Description: (§1) The susceptibility defined in the present specification is evaluated in terms of a relative activity that is determined in a system wherein the inhibitor coexists or not. The relative activity is derived from a relative value (%) of an enzymatic activity (a sample value) obtained with the addition of the inhibitor in the determination of the enzymatic activity described in the present specification as compared with an enzymatic activity (a blank value) as “100%” obtained without the addition of the inhibitor in the same determination. Thus, the higher the relative activity is, the less the susceptibility to the inhibitor is (or the more the susceptibility to the inhibitor is reduced), vice versa.
(§2) The enzymatic activity is determined in the following manner in Examples 3 and 6 wherein a plate reader (Japan Molecular Device Corporation, SpectraMax Plus384) is used. Thus, culture supernatant that had been diluted in advance with an appropriate magnification is added to a 96-well microplate with an amount of 100 μl per well. A reagent for the determination of the enzymatic activity comprising phosphate buffer (pH 7.0), 1.0 M D-glucose, 3 mM DCIP, 3 mM 1-m-PMS and methanol with a volume ratio of 0.1:1:0.14:0.2:0.06 is added to the 96-well microplate with an amount of 100 μl per well, and a change in the absorbance of DCIP at 600 nm (ΔABS/min) is then determined. The enzymatic activity can be calculated by conversion in proportion to a change in the absorbance of an enzyme solution for which the enzymatic activity has already been known by the above-mentioned activity determination procedure using the spectrophotometer.
(§3) In the following examples, a value of the enzymatic activity determined by the spectrometer or plate reader using the above reagent composition is considered as a blank value. On the other hand, a sample value is determined using a methanol solution comprising the inhibitor such as 1,10-phenanthroline or proflavin hydrochloride at a final concentration of 1 mM instead of the methanol. Enzymatic activity (unit/mL)=(−ΔABS/16.3)×3.0/0.05×(Dilution ratio of enzyme) [Equation 1]

[2] = Relative enzymatic activity of GLD (DCIP/1-m-PMS, plate reader, yeast culture supernatant) with 1,10-phenanthroline present; assay type: biochemical; settings: site-specific mutants, inhibitor final concentration 1 mM
Description: as §1, §2, §3
Into each well of a 96-well microplate (manufactured by Nunc, Inc.), a YPD medium containing 125 μL of 1.0% (w/v) yeast extract (manufactured by BD), 2.0% (w/v) tryptone (manufactured by BD), 2.0% (w/v) glucose (manufactured by Wako Pure Chemical Industries, Ltd.) was dispensed, and the transformant colonies obtained in Example 2 were inoculated thereinto one by one.
After shaking culture at 30° C. and 1,000 rpm for 24 hours, the culture mixture was centrifuged and the supernatant was collected.
According to the above-mentioned method for the determination of enzymatic activity, a blank value and a sample value were determined using a plate reader, and the relative activity (%) was obtained by dividing the sample value by the blank value.

B1: S340G: modified GLD: SEQ ID NO: 1 with substitution S340G (protein, listed as Aspergillus terreus)
chain: MLGKLSFLSALSLAVAAPLSNSTSAKYDYIVIGGGTSGLAVANRLSEDPNVNVLILEAGGSVWNNPNVTNVDGYGLAFGSDIDWQYQSVNQPYGGNLSQVLRAGKALGGTSTINGMAYTRAEDVQIDAWETIGNTGWTWKNLFPYYRKSENFTVPTKSQTSLGASYEAGAHGHEGPLDVAFTQIESNNLTTYLNRTFQGMGLPWTEDVNGGKMRGFNLYPSTVNLEEYVREDAARAYYWPYKSRPNLHVLLNTFANRIVWDGEAHDGHITASGVEITSRNGTVRVINAEKEVIVSAGALKSPAILELSGIGNPSVLDKHNIPVKVNLPTVGENLQDQVNGHMDASGNTSISGTKAVSYPDVYDVFGDEAESVAKQIRANLKQYAADTAKANGNIMKAADLERLFEVQYDLIFKGRVPIAEVLNYPGSATSVFAEFWALLPFARGSVHIGSSNPAEFPVINPNYFMLDWDAKSYVAVAKYIRRSFESYPLSSIVKESTPGYDVIPRNASEQSWKEWVFDKNYRSNFHPVGTAAMMPREIGGVVDERLNVYGTTNVRVVDASVLPFQVCGHLVSTLYAVAERAADLIKADAGRR
modifications: SIGNAL (1)..(19)
For B1, the “Relative Activity [%] Proflavin hydrochloride” value [1] was 49.5% and the “Relative Activity [%] 1,10-Phenanthroline” value [2] was 54.6%.

B2: H341Y: modified GLD: SEQ ID NO: 1 with substitution H341Y (protein, listed as Aspergillus terreus)
chain: B1 chain with G340S, H341Y
modifications: SIGNAL (1)..(19)
In the case of B2, the “Relative Activity [%] Proflavin hydrochloride” value [1] is reported as 77.8% and the “Relative Activity [%] 1,10-Phenanthroline” value [2] is reported as 93.6%.

B3: S340V: modified GLD: SEQ ID NO: 1 with substitution S340V (protein, listed as Aspergillus terreus)
chain: B1 chain with G340V
modifications: SIGNAL (1)..(19)
For B3, the “Relative Activity [%] Proflavin hydrochloride” value [1] was 54.9% and the “Relative Activity [%] 1,10-Phenanthroline” value [2] was 84.2%.

B4: H341R: modified GLD: SEQ ID NO: 1 with substitution H341R (protein, listed as Aspergillus terreus)
chain: B1 chain with G340S, H341R
modifications: SIGNAL (1)..(19)
With B4 the “Relative Activity [%] Proflavin hydrochloride” value [1] was 69.5% and the “Relative Activity [%] 1,10-Phenanthroline” value [2] was 78.6%.

B5: H341S: modified GLD: SEQ ID NO: 1 with substitution H341S (protein, listed as Aspergillus terreus)
chain: B1 chain with G340S, H341S
modifications: SIGNAL (1)..(19)
With B5 the “Relative Activity [%] Proflavin hydrochloride” value [1] was 76.6% and the “Relative Activity [%] 1,10-Phenanthroline” value [2] was 90.4%.

B6: D343A: modified GLD: SEQ ID NO: 1 with substitution D343A (protein, listed as Aspergillus terreus)
chain: B1 chain with G340S, D343A
modifications: SIGNAL (1)..(19)
With B6 the “Relative Activity [%] Proflavin hydrochloride” value [1] was 51.2% and the “Relative Activity [%] 1,10-Phenanthroline” value [2] was 72.5%.

B7: H341D: modified GLD: SEQ ID NO: 1 with substitution H341D (protein, listed as Aspergillus terreus)
chain: B1 chain with G340S, H341D
modifications: SIGNAL (1)..(19)
For B7, the “Relative Activity [%] Proflavin hydrochloride” value [1] was 64.5% and the “Relative Activity [%] 1,10-Phenanthroline” value [2] was 90.0%.

B8: H341F: modified GLD: SEQ ID NO: 1 with substitution H341F (protein, listed as Aspergillus terreus)
chain: B1 chain with G340S, H341F
modifications: SIGNAL (1)..(19)
For B8, the “Relative Activity [%] Proflavin hydrochloride” value [1] was 67.5% and the “Relative Activity [%] 1,10-Phenanthroline” value [2] was 97.1%.

B9: H341C: modified GLD: SEQ ID NO: 1 with substitution H341C (protein, listed as Aspergillus terreus)
chain: B1 chain with G340S, H341C
modifications: SIGNAL (1)..(19)
For B9, the “Relative Activity [%] Proflavin hydrochloride” value [1] was 67.7% and the “Relative Activity [%] 1,10-Phenanthroline” value [2] was 95.4%.

B10: S340N: modified GLD: SEQ ID NO: 1 with substitution S340N (protein, listed as Aspergillus terreus)
chain: B1 chain with G340N
modifications: SIGNAL (1)..(19)
In the case of B10, the “Relative Activity [%] Proflavin hydrochloride” value [1] is reported as 49.9% and the “Relative Activity [%] 1,10-Phenanthroline” value [2] is reported as 82.0%.

B11: H341A: modified GLD: SEQ ID NO: 1 with substitution H341A (protein, listed as Aspergillus terreus)
chain: B1 chain with G340S, H341A
modifications: SIGNAL (1)..(19)
In the case of B11, the “Relative Activity [%] Proflavin hydrochloride” value [1] is reported as 75.8% and the “Relative Activity [%] 1,10-Phenanthroline” value [2] is reported as 95.1%.

B12: D343E: modified GLD: SEQ ID NO: 1 with substitution D343E (protein, listed as Aspergillus terreus)
chain: B1 chain with G340S, D343E
modifications: SIGNAL (1)..(19)
In the case of B12, the “Relative Activity [%] Proflavin hydrochloride” value [1] is reported as 58.2% and the “Relative Activity [%] 1,10-Phenanthroline” value [2] is reported as 61.4%.

B13: H341M: modified GLD: SEQ ID NO: 1 with substitution H341M (protein, listed as Aspergillus terreus)
chain: B1 chain with G340S, H341M
modifications: SIGNAL (1)..(19)
For B13, the “Relative Activity [%] Proflavin hydrochloride” value [1] was 71.4% and the “Relative Activity [%] 1,10-Phenanthroline” value [2] was 95.4%.

B14: H341V: modified GLD: SEQ ID NO: 1 with substitution H341V (protein, listed as Aspergillus terreus)
chain: B1 chain with G340S, H341V
modifications: SIGNAL (1)..(19)
For B14, the “Relative Activity [%] Proflavin hydrochloride” value [1] was 71.4% and the “Relative Activity [%] 1,10-Phenanthroline” value [2] was 96.1%.

B15: H341I: modified GLD: SEQ ID NO: 1 with substitution H341I (protein, listed as Aspergillus terreus)
chain: B1 chain with G340S, H341I
modifications: SIGNAL (1)..(19)
For B15, the “Relative Activity [%] Proflavin hydrochloride” value [1] was 64.4% and the “Relative Activity [%] 1,10-Phenanthroline” value [2] was 97.4%.

B16: H341K: modified GLD: SEQ ID NO: 1 with substitution H341K (protein, listed as Aspergillus terreus)
chain: B1 chain with G340S, H341K
modifications: SIGNAL (1)..(19)
In the case of B16, the “Relative Activity [%] Proflavin hydrochloride” value [1] is reported as 61.3% and the “Relative Activity [%] 1,10-Phenanthroline” value [2] is reported as 99.2%.

B17: H341Q: modified GLD: SEQ ID NO: 1 with substitution H341Q (protein, listed as Aspergillus terreus)
chain: B1 chain with G340S, H341Q
modifications: SIGNAL (1)..(19)
With B17 the “Relative Activity [%] Proflavin hydrochloride” value [1] was 68.1% and the “Relative Activity [%] 1,10-Phenanthroline” value [2] was 97.5%.

B18: H341G: modified GLD: SEQ ID NO: 1 with substitution H341G (protein, listed as Aspergillus terreus)
chain: B1 chain with G340S, H341G
modifications: SIGNAL (1)..(19)
For B18, the “Relative Activity [%] Proflavin hydrochloride” value [1] was 76.9% and the “Relative Activity [%] 1,10-Phenanthroline” value [2] was 93.8%.

B19: H341E: modified GLD: SEQ ID NO: 1 with substitution H341E (protein, listed as Aspergillus terreus)
chain: B1 chain with G340S, H341E
modifications: SIGNAL (1)..(19)
For B19, the “Relative Activity [%] Proflavin hydrochloride” value [1] was 25.2% and the “Relative Activity [%] 1,10-Phenanthroline” value [2] was 88.4%.

B20: S340W: modified GLD: SEQ ID NO: 1 with substitution S340W (protein, listed as Aspergillus terreus)
chain: B1 chain with G340W
modifications: SIGNAL (1)..(19)
With B20 the “Relative Activity [%] Proflavin hydrochloride” value [1] was 75.7% and the “Relative Activity [%] 1,10-Phenanthroline” value [2] was 97.7%.

B21: H341N: modified GLD: SEQ ID NO: 1 with substitution H341N (protein, listed as Aspergillus terreus)
chain: B1 chain with G340S, H341N
modifications: SIGNAL (1)..(19)
With B21 the “Relative Activity [%] Proflavin hydrochloride” value [1] was 81.5% and the “Relative Activity [%] 1,10-Phenanthroline” value [2] was 93.3%.

B22: H341P: modified GLD: SEQ ID NO: 1 with substitution H341P (protein, listed as Aspergillus terreus)
chain: B1 chain with G340S, H341P
modifications: SIGNAL (1)..(19)
With B22 the “Relative Activity [%] Proflavin hydrochloride” value [1] was 43.2% and the “Relative Activity [%] 1,10-Phenanthroline” value [2] was 88.3%.
